Experimental data taken from PMC10728100, “Structural and biochemical investigations of a HEAT-repeat protein involved in the cytosolic iron-sulfur cluster assembly pathway” (Communications Biology, 2023).
Where a chain is given by its changes, count along the chain named. Values joined by “and” are separate entries in the source; they are usually repeats but may differ in a detail not shown here. Equal values may be shown once.

B1: ScLeu1 with N-terminal His tag (natural protein, S. cerevisiae, UniProt P07264 1-779, looked up)
chain: MVYTPSKGPRTLYDKVFDAHVVHQDENGSFLLYIDRHLVHEVTSPQAFEGLENAGRKVRRVDCTLATVDHNIPTESRKNFKSLDTFIKQTDSRLQVKTLENNVKQFGVPYFGMSDARQGIVHTIGPEEGFTLPGTTVVCGDSHTSTHGAFGSLAFGIGTSEVEHVLATQTIIQAKSKNMRITVNGKLSPGITSKDLILYIIGLIGTAGGTGCVIEFAGEAIEALSMEARMSMCNMAIEAGARAGMIKPDETTFQYTKGRPLAPKGAEWEKAVAYWKTLKTDEGAKFDHEINIEAVDVIPTITWGTSPQDALPITGSVPDPKNVTDPIKKSGMERALAYMGLEPNTPLKSIKVDKVFIGSCTNGRIEDLRSAAAVVRGQKLASNIKLAMVVPGSGLVKKQAEAEGLDKIFQEAGFEWREAGCSICLGMNPDILDAYERCASTSNRNFEGRQGALSRTHLMSPAMAAAAGIAGHFVDIREFEYKDQDQSSPKVEVTSEDEKELESAAYDHAEPVQPEDAPQDIANDELKDIPVKSDDTPAKPSSSGMKPFLTLEGISAPLDKANVDTDAIIPKQFLKTIKRTGLKKGLFYEWRFRKDDQGKDQETDFVLNVEPWREAEILVVTGDNFGCGSSREHAPWALKDFGIKSIIAPSYGDIFYNNSFKNGLLPIRLDQQIIIDKLIPIANKGGKLCVDLPNQKILDSDGNVLVDHFEIEPFRKHCLVNGLDDIGITLQKEEYISRYEALRREKYSFLEGGSKLLKFDNVPKRKAVTTTFDKVHQDW
notes: Leu1, isopropylmalate isomerase, S. cerevisiae; also called HisLeu1; source: purified
B2: untagged ScMet18 (S. cerevisiae Met18, His-SUMO tag removed by SUMO protease) (natural protein)
chain: MTPDELNSAVVTFMANLNIDDSKANETASTVTDSIVHRSIKLLEVVVALKDYFLSENEVERKKALTCLTTILAKTPKDHLSKNECSVIFQFYQSKLDDQALAKEVLEGFAALAPMKYVSINEIAQLLRLLLDNYQQGQHLASTRLWPFKILRKIFDRFFVNGSSTEQVKRINDLFIETFLHVANGEKDPRNLLLSFALNKSITSSLQNVENFKEDLFDVLFCYFPITFKPPKHDPYKISNQDLKTALRSAITATPLFAEDAYSNLLDKLTASSPVVKNDTLLTLLECVRKFGGSSILENWTLLWNALKFEIMQNSEGNENTLLNPYNKDQQSDDVGQYTNYDACLKIINLMALQLYNFDKVSFEKFFTHVLDELKPNFKYEKDLKQTCQILSAIGSGNVEIFNKVISSTFPLFLINTSEVAKLKLLIMNFSFFVDSYIDLFGRTSKESLGTPVPNNKMAEYKDEIIMILSMALTRSSKAEVTIRTLSVIQFTKMIKMKGFLTPEEVSLIIQYFTEEILTDNNKNIYYACLEGLKTISEIYEDLVFEISLKKLLDLLPDCFEEKIRVNDEENIHIETILKIILDFTTSRHILVKESITFLATKLNRVAKISKSREYCFLLISTIYSLFNNNNQNENVLNEEDALALKNAIEPKLFEIITQESAIVSDNYNLTLLSNVLFFTNLKIPQAAHQEELDRYNELFISEGKIRILDTPNVLAISYAKILSALNKNCQFPQKFTVLFGTVQLLKKHAPRMTETEKLGYLELLLVLSNKFVSEKDVIGLFDWKDLSVINLEVMVWLTKGLIMQNSLESSEIAKKFIDLLSNEEIGSLVSKLFEVFVMDISSLKKFKGISWNNNVKILYKQKFFGDIFQTLVSNYKNTVDMTIKCNYLTALSLVLKHTPSQSVGPFINDLFPLLLQALDMPDPEVRVSALETLKDTTDKHHTLITEHVSTIVPLLLSLSLPHKYNSVSVRLIALQLLEMITTVVPLNYCLSYQDDVLSALIPVLSDKKRIIRKQCVDTRQVYYELGQIPFE
notes: Met18 (MMS19 in humans), S. cerevisiae; Met18 gene amplified from genomic DNA; 118 kDa; model holds residues 9-225, 242-314 and 338-1029; Mixture of monomers, dimers, tetramers and hexamers in solution; hexamer and tetramer by cryo-EM; also called SUMO-cleaved ScMet18; source: E. coli Rosetta2(DE3), purified (Ni-NTA, gel filtration; tag cut with SUMO protease, Ni-NTA flow through); not shown: …
B3: SUMO-tagged ScMet18, wild type (N-terminal His-tag followed by SUMO solubility tag) (natural protein, S. cerevisiae)
chain: B2 chain
notes: Met18, S. cerevisiae; Met18 gene amplified from genomic DNA; 131 kDa with the tag; also called SUMOMet18; SUMOScMet18; source: E. coli Rosetta2(DE3), purified (Ni-NTA, gel filtration); not shown: His, N-terminal, kept; SUMO, N-terminal, kept

Columns and labels:
[1] = molecular target: T1, SUMO-tagged ScMet18 I973A (S. cerevisiae, UniProt P40469 1-1032, I973A); test: pull-down; as the ScCia2 bait pull-down, but ScLeu1 and ScCia1 included in addition to the SUMO-tagged ScMet18 variant and the strep-tagged ScCia2 bait; Strep-Tactin XT resin; SDS-PAGE; conditions: both partners purified
T1 construct: Met18, S. cerevisiae; substitution in HEAT-repeat 22; source: E. coli Rosetta2(DE3), purified (Ni-NTA, gel filtration); not shown: His, N-terminal, kept; SUMO, N-terminal, kept
T1 sequence: B2 chain with I973A

[2] = molecular target: B3; test: as above; conditions: both partners purified
[3] = molecular target: the molecule itself; test: cryo-EM structure; Vitrobot-plunged grids; untagged ScMet18 at 1.2 mg/mL (9 µM) in 50 mM HEPES pH 7.5, 100 mM NaCl, 1% glycerol, 1 mM BME, 33 mM sodium acetate; 10 °C; D3 symmetry
[4] = molecular target: the molecule itself; test: mass photometry; ScMet18 alone (SUMO-tagged or untagged) at 0.050 µM in 50 mM Tris pH 8.0, 100 mM NaCl, 1% glycerol, 5 mM BME
[5] = molecular target: the molecule itself; test: cryo-EM structure; chameleon-prepared grids; untagged ScMet18 at 2 µg/µL (15 µM) in 50 mM Tris pH 8.0, 100 mM NaCl, 1% glycerol, 1 mM BME; 24 °C

B1
binding result [1]: binds
binding result [2]: binds

B2
stoichiometry N [3]: 6
stoichiometry N [4]: 2
stoichiometry N [5]: 6 and 4

B3
stoichiometry N [4]: 2 and 4 and 6
